Experimental findings from the supplement of paper PMC11780869 are described below.

In this data set the test system is Bacillus subtilis. The data set can be described thus: cleaved RNA product abundance (RNA/gDNA barcode ratio) relative to median wild-type variant (ratio to wild type); higher = more accumulation of the downstream cleavage product. The settings on record: experiment (reporter, strain, medium): exp 8a: truncated aprE reporter, strain BJT201 with 2% xylose (RNase J1 expressed); cleavage site: glnRA (positions -5 to +31 mutated). Put shortly:
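Reporter mRNAs based on truncated aprE or tetM carried barcoded, mutagenized RNase Y cleavage-site windows built from oligos with a 9% error rate and were integrated into the B. subtilis chromosome. Cultures grew in LB at 37°C from OD600 0.0003 to 0.3. Cleaved RNA was gel-selected, reverse transcribed and barcode-sequenced together with genomic DNA barcodes, and UMIs were collapsed. Cleaved product abundance is the per-construct ratio of RNA to gDNA barcodes, scaled to the median of constructs carrying the unmutated site.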
As to “CGACATGTCCCGCTTCTTTCATTAATCCGTTACCAATTGTTTTGCTATATACATTTACCTTTTAAGAGGAGGAAT”, the “cleaved RNA product abundance” value is 0.16.

As to “CGACATGTCCCGCTTCTTTCATTAATCCGTTACCATCTGTTTTGCTATATACATTTACCTTTTAAGAGGAGGAAT”, the “cleaved RNA product abundance” value amounted to 0.163.

Take “CGACATGTCCCGCTTCTTTCATTAATCCGTTACCGACTGTTTTGCTATATACATTTACCTTTTAAGAGGAGGAAT”: the “cleaved RNA product abundance” value stood at 0.269.

Turning to “CGACATGTCCCGCTTCTTTCATTAATCCGTTACCTACTGTTTTGCTATATACATTTACCTTTTAAGAGGAGGAAT”, the “cleaved RNA product abundance” value was found to be 0.443.

For “CGACATGTCCCGCTTCTTTCATTAATCCGTTACGAACTGTTTTGCTATATACATTTACCTTTTAAGAGGAGGAAT”, the “cleaved RNA product abundance” value is 0.291.

With “CGACATGTCCCGCTTCTTTCATTAATCCGTTACTAACTGTTTTGCTATATACATTTACCTTTTAAGAGGAGGAAT”, the “cleaved RNA product abundance” value stood at 0.155.

With “CGACATGTCCCGCTTCTTTCATTAATCCGTTAGAAAATGTTTTGCTATAAACATTTACCTTTTAAGAGGAGGAAT”, the “cleaved RNA product abundance” value was 0.166.

“CGACATGTCCCGCTTCTTTCATTAATCCGTTAGAAAATGTTTTGCTATATACATTTACCTTTTAAGAGGAGGAAT”: the “cleaved RNA product abundance” value turned out to be 0.396.

On to “CGACATGTCCCGCTTCTTTCATTAATCCGTTAGAAACAGTTTTGCTATATATATTTACATTTTAAGAGGAGGAAT”, for which the “cleaved RNA product abundance” value came out at 0.362.

In the case of “CGACATGTCCCGCTTCTTTCATTAATCCGTTAGAAACTATTTTGCTATATACATTTACCTTTTAAGAGGAGGAAT”, the “cleaved RNA product abundance” value was 0.339.

Regarding “CGACATGTCCCGCTTCTTTCATTAATCCGTTAGAAACTCTTTTGCTATATACATTTACCTTTTAAGAGGAGGAAT”, the “cleaved RNA product abundance” value was found to be 0.377.

Take “CGACATGTCCCGCTTCTTTCATTAATCCGTTAGAAACTGATTTGCTATATACATTTACCTTTTAAGAGGAGGAAT”: the “cleaved RNA product abundance” value worked out at 0.194.

For “CGACATGTCCCGCTTCTTTCATTAATCCGTTAGAAACTGCTTTGCTATATACATTTACCTTTTAAGAGGAGGAAT”, the “cleaved RNA product abundance” value was 0.146.

In the case of “CGACATGTCCCGCTTCTTTCATTAATCCGTTAGAAACTGTATTGCTATATACATTTACCTTTTAAGAGGAGGAAT”, the “cleaved RNA product abundance” value worked out at 0.321.

With “CGACATGTCCCGCTTCTTTCATTAATCCGTTAGAAACTGTTGTGCTATATACATTTACCTTTTAAGAGGAGGAAT”, the “cleaved RNA product abundance” value turned out to be 0.361.

Consider “CGACATGTCCCGCTTCTTTCATTAATCCGTTAGAAACTGTTTAGCTATATACATTTACCTTTTAAGAGGAGGAAT”, for which the “cleaved RNA product abundance” value came out at 0.295.

With “CGACATGTCCCGCTTCTTTCATTAATCCGTTAGAAACTGTTTCGCTATATACATTTACCTTTTAAGAGGAGGAAT”, the “cleaved RNA product abundance” value worked out at 0.12.

In the case of “CGACATGTCCCGCTTCTTTCATTAATCCGTTAGAAACTGTTTTACTATATACATTTACCTTTTAAGAGGAGGAAT”, the “cleaved RNA product abundance” value was 0.422.

Regarding “CGACATGTCCCGCTTCTTTCATTAATCCGTTAGAAACTGTTTTCCTATATACATTTACCTTTTAAGAGGAGGAAT”, the “cleaved RNA product abundance” value came out at 0.317.

On to “CGACATGTCCCGCTTCTTTCATTAATCCGTTAGAAACTGTTTTGATATATACATTTACCTTTTAAGAGGAGGAAT”, for which the “cleaved RNA product abundance” value amounted to 0.221.

As to “CGACATGTCCCGCTTCTTTCATTAATCCGTTAGAAACTGTTTTGCTAAATACATTTACCTTTTAAGAGGAGGAAT”, the “cleaved RNA product abundance” value was 0.241.

As to “CGACATGTCCCGCTTCTTTCATTAATCCGTTAGAAACTGTTTTGCTAGATACATTTACCTTTTAAGAGGAGGAAT”, the “cleaved RNA product abundance” value was 0.255.

For “CGACATGTCCCGCTTCTTTCATTAATCCGTTAGAAACTGTTTTGCTATAAACATTTACCTTTTAAGAGGAGGAAT”, the “cleaved RNA product abundance” value is 0.203.

Regarding “CGACATGTCCCGCTTCTTTCATTAATCCGTTAGAAACTGTTTTGCTATACACATTTACCTTTTAAGAGGAGGAAT”, the “cleaved RNA product abundance” value was determined as 0.253.

On to “CGACATGTCCCGCTTCTTTCATTAATCCGTTAGAAACTGTTTTGCTATATAAATTTACCTTTTAAGAGGAGGAAT”, for which the “cleaved RNA product abundance” value turned out to be 0.256.

Take “CGACATGTCCCGCTTCTTTCATTAATCCGTTAGAAACTGTTTTGCTATATACACTTACCTTTTAAGAGGAGGAAT”: the “cleaved RNA product abundance” value stood at 0.157.

For “CGACATGTCCCGCTTCTTTCATTAATCCGTTAGAAACTGTTTTGCTATATACAGTTACCTTTTAAGAGGAGGAAT”, the “cleaved RNA product abundance” value was 0.361.

As for “CGACATGTCCCGCTTCTTTCATTAATCCGTTAGAAACTGTTTTGCTATATACATATACCTTTTAAGAGGAGGAAT”, the “cleaved RNA product abundance” value turned out to be 0.244.

On to “CGACATGTCCCGCTTCTTTCATTAATCCGTTAGAAACTGTTTTGCTATATACATCTACCTTTTAAGAGGAGGAAT”, for which the “cleaved RNA product abundance” value worked out at 0.228.

Regarding “CGACATGTCCCGCTTCTTTCATTAATCCGTTAGAAACTGTTTTGCTATATACATTAACCTTTTAAGAGGAGGAAT”, the “cleaved RNA product abundance” value worked out at 0.374.

Take “CGACATGTCCCGCTTCTTTCATTAATCCGTTAGAAACTGTTTTGCTATATACATTTACATTTTAAGAGGAGGAAT”: the “cleaved RNA product abundance” value amounted to 0.34.

With “CGACATGTCCCGCTTCTTTCATTAATCCGTTAGAAACTGTTTTGCTATATACATTTACCTTTTAAGAGGAGGAAT”, the “cleaved RNA product abundance” value is 0.292.

For the sequence “CGACATGTCCCGCTTCTTTCATTAATCCGTTAGAAACTGTTTTGCTATATACATTTACTTTTTAAGAGGAGGAAT”, the “cleaved RNA product abundance” value was 0.331.

For “CGACATGTCCCGCTTCTTTCATTAATCCGTTAGAAACTGTTTTGCTATATACATTTATCTTTTAAGAGGAGGAAT”, the “cleaved RNA product abundance” value is 0.384.

Turning to “CGACATGTCCCGCTTCTTTCATTAATCCGTTAGAAACTGTTTTGCTATATACTTTTACCTTTTAAGAGGAGGAAT”, the “cleaved RNA product abundance” value came out at 0.217.

In the case of “CGACATGTCCCGCTTCTTTCATTAATCCGTTAGAAACTGTTTTGCTATATATATTTACCTTTTAAGAGGAGGAAT”, the “cleaved RNA product abundance” value turned out to be 0.272.

Turning to “CGACATGTCCCGCTTCTTTCATTAATCCGTTAGAAACTGTTTTGCTATATTCATTTACCTTTTAAGAGGAGGAAT”, the “cleaved RNA product abundance” value was found to be 0.268.

For the sequence “CGACATGTCCCGCTTCTTTCATTAATCCGTTAGAAACTGTTTTGCTATTTACATTTACCTTTTAAGAGGAGGAAT”, the “cleaved RNA product abundance” value came to 0.127.

As to “CGACATGTCCCGCTTCTTTCATTAATCCGTTAGAAACTGTTTTGCTGTATACATTCATCTTTTAAGAGGAGGAAT”, the “cleaved RNA product abundance” value came to 0.0887.

Consider “CGACATGTCCCGCTTCTTTCATTAATCCGTTAGAAACTGTTTTGCTGTATACATTTACCTTTTAAGAGGAGGAAT”, for which the “cleaved RNA product abundance” value was determined as 0.085.

As for “CGACATGTCCCGCTTCTTTCATTAATCCGTTAGAAACTGTTTTGGTATATACATTTACCTTTTAAGAGGAGGAAT”, the “cleaved RNA product abundance” value turned out to be 0.104.

With “CGACATGTCCCGCTTCTTTCATTAATCCGTTAGAAACTGTTTTTCTATATACATTTACCTTTTAAGAGGAGGAAT”, the “cleaved RNA product abundance” value was 0.511.

Consider “CGACATGTCCCGCTTCTTTCATTAATCCGTTAGAAACTTTTTTGCTATATACATTTACCTTTTAAGAGGAGGAAT”, for which the “cleaved RNA product abundance” value was 0.287.

Take “CGACATGTCCCGCTTCTTTCATTAATCCGTTAGAAAGTGTTTTGCTATATACATTTACCTTTTAAGAGGAGGAAT”: the “cleaved RNA product abundance” value amounted to 0.368.

On to “CGACATGTCCCGCTTCTTTCATTAATCCGTTAGAAATTGTTTTGCTATATACATTTACCTTTTAAGAGGAGGAAT”, for which the “cleaved RNA product abundance” value came to 0.342.

Take “CGACATGTCCCGCTTCTTTCATTAATCCGTTAGAACCTGTTTTGCTATATACATTTACCTTTTAAGAGGAGGAAT”: the “cleaved RNA product abundance” value was 0.229.

For “CGACATGTCCCGCTTCTTTCATTAATCCGTTAGAAGCTGTTTTGCTATATACATTTACCTTTTAAGAGGAGGAAT”, the “cleaved RNA product abundance” value is 0.23.

Turning to “CGACATGTCCCGCTTCTTTCATTAATCCGTTAGAATCTGTTTTGCTATATACATTTACCTTTTAAGAGGAGGAAT”, the “cleaved RNA product abundance” value was determined as 0.239.

As for “CGACATGTCCCGCTTCTTTCATTAATCCGTTAGATACTGTTTTGCTATATACATTTACCTTTTAAGAGGAGGAAT”, the “cleaved RNA product abundance” value was 0.273.

Take “CGACATGTCCCGCTTCTTTCATTAATCCGTTAGCAAATATTTTGCTATATACATTTACCTTTTAAGAGGAGGAAT”: the “cleaved RNA product abundance” value worked out at 0.843.

Regarding “CGACATGTCCCGCTTCTTTCATTAATCCGTTAGCAAATGATTTGCTATATACATTTACCTTTTAAGAGGAGGAAT”, the “cleaved RNA product abundance” value worked out at 1.28.

In the case of “CGACATGTCCCGCTTCTTTCATTAATCCGTTAGCAAATGGTTTGCTATATACATTTACCTTTTAAGAGGAGGAAT”, the “cleaved RNA product abundance” value was 0.732.

With “CGACATGTCCCGCTTCTTTCATTAATCCGTTAGCAAATGTTATGCTATATACATTTACCTTTTAAGAGGAGGAAT”, the “cleaved RNA product abundance” value was determined as 0.766.

With “CGACATGTCCCGCTTCTTTCATTAATCCGTTAGCAAATGTTTAGCTATATACATTTACCTTTTAAGAGGAGGAAT”, the “cleaved RNA product abundance” value came to 0.503.

On to “CGACATGTCCCGCTTCTTTCATTAATCCGTTAGCAAATGTTTGGCTATATACATTTACCTTTTAAGAGGAGGAAT”, for which the “cleaved RNA product abundance” value came out at 0.43.

With “CGACATGTCCCGCTTCTTTCATTAATCCGTTAGCAAATGTTTTACTATATACATTTACCTTTTAAGAGGAGGAAT”, the “cleaved RNA product abundance” value was found to be 0.73.

Regarding “CGACATGTCCCGCTTCTTTCATTAATCCGTTAGCAAATGTTTTCCTATATACACTTACCTTTTAAGAGGAGGAAT”, the “cleaved RNA product abundance” value was found to be 0.377.

Take “CGACATGTCCCGCTTCTTTCATTAATCCGTTAGCAAATGTTTTGATATATACATTTACCTTTTAAGAGGAGGAAT”: the “cleaved RNA product abundance” value stood at 0.418.

Take “CGACATGTCCCGCTTCTTTCATTAATCCGTTAGCAAATGTTTTGCAATATACATTTACCTTTTAAGAGGAGGAAT”: the “cleaved RNA product abundance” value was found to be 0.304.

“CGACATGTCCCGCTTCTTTCATTAATCCGTTAGCAAATGTTTTGCTACATACATTTACCTTTTAAGAGGAGGAAT”: the “cleaved RNA product abundance” value is 0.354.

Take “CGACATGTCCCGCTTCTTTCATTAATCCGTTAGCAAATGTTTTGCTATAAACATTTACCTTTTAAGAGGAGGAAT”: the “cleaved RNA product abundance” value worked out at 0.584.
